Source: patent publication US12618111

Biological target: LFA1 receptor on T cells (human) (UniProt P20701)
Experiment: cell-based or functional assay

Sequence of UniProt P20701 (P20701 26-1170, chain 1 of 2): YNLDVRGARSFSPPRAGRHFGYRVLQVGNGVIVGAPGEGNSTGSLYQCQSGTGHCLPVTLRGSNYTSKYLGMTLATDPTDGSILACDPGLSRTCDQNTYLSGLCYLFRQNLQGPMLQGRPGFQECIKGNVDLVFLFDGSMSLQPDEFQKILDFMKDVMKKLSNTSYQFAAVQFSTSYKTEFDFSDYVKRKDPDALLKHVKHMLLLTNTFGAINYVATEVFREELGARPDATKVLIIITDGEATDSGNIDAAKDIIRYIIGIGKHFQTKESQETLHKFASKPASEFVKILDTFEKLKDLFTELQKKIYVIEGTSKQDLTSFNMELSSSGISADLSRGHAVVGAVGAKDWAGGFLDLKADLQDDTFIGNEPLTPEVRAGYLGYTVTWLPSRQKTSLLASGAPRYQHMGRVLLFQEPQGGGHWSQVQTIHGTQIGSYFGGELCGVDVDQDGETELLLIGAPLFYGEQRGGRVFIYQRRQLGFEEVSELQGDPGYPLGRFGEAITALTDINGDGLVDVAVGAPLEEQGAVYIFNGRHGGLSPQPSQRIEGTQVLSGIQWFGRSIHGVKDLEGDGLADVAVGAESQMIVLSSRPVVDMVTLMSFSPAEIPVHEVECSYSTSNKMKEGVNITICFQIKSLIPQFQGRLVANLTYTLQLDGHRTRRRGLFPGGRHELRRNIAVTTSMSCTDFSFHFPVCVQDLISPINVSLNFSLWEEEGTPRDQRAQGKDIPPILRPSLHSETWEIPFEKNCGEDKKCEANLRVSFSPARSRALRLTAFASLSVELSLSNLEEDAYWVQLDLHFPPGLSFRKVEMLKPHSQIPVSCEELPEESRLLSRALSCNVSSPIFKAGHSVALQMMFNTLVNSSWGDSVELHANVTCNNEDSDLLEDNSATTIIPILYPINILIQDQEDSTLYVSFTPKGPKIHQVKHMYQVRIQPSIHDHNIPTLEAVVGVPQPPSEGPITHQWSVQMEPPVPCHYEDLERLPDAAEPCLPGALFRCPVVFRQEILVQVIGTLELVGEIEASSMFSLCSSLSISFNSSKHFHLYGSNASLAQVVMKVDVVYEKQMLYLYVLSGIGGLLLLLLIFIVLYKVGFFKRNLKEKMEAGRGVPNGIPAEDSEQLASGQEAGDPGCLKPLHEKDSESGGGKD
Sequence of UniProt P20701 (P05107 23-769, chain 2 of 2, further chain): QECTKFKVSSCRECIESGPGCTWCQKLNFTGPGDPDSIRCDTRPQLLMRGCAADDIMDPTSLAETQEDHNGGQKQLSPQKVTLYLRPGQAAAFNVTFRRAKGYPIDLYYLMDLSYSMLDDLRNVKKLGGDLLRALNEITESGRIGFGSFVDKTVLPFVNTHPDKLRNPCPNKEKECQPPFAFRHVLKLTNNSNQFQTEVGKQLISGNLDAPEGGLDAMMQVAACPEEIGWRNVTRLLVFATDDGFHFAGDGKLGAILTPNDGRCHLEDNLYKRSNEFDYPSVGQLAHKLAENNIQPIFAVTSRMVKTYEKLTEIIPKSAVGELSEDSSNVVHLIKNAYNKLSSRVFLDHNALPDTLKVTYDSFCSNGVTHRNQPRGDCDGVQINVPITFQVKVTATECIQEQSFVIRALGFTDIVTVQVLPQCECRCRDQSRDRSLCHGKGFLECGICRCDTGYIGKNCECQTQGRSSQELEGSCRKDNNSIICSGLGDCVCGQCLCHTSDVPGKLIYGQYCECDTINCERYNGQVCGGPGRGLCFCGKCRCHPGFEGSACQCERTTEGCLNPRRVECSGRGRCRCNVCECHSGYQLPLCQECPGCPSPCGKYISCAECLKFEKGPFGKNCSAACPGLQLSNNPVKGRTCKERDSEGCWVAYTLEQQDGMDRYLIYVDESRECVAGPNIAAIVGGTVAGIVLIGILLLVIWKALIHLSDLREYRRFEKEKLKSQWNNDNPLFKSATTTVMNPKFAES

IFN-γ secretion (ELISA) by CD4+ T cells stimulated with IL12, IL18 and TL1A after pretreatment with LFA1 blocking antibody, compared to IgG control antibody: 43 % reduction
Substance: anti-LFA1 (TS1/18) monoclonal antibody
